Results on 2 substances are retold here after article PMC8437434.

Test [1] has as its target tau^4R (residues 244-372, C322A) (UniProt P10636).
The target is the same in test [2]. The source holds these as a separate data set.

Sequence of tau^4R (residues 244-372, C322A) (P10636 561-689 C639A): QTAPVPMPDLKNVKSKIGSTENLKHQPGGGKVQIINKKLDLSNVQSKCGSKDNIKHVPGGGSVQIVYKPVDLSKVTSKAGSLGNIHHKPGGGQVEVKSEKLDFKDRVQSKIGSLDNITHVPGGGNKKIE

In test [1], “HSPB1 3D GXG variant (S15D, S78D, S82D, I181G, V183G) (from UniProt P04792 1-205) (natural protein)” came in with a reduction of tau fibril mass (kinetic measurements) at equimolar HSPB1:tau of 45%. This substance gave a reduction of tau fibril mass (unnormalised ThT kinetics) at 1:1 HSPB1:tau in test [2] of 47%.

For “full-length DNAJB1 (from UniProt P25685 1-340) (natural protein)”, the reduction of tau fibril mass (unnormalised ThT kinetics), DNAJB1:tau 0.5:1 (67%) to 1:1 in test [2] is 94%.
